Results reported in patent US20220204580A1 (AstraZeneca / MedImmune, published 2022).
Numbered stars: 1 amine (or outer) side, 2 acyl side, 3 side chain; on linkers, the order of the positions; unused ones are H or OH. Bridge positions count the residues as written; N and C are the ends. Square brackets hold non-standard residues; d marks the D form. Side chains are listed from the residue outwards. Ends that are not written are not given here. * marks the point of attachment. C18 diacid = O=C(O)CCCCCCCCCCCCCCCCC(=O)*; γGlu = O=C(O)[C@H](CCC(=O)[*:2])N[*:1]; AEEA = NCCOCCOCC(=O)O; Aib = CC(C)(N)C(=O)O

T1: human amylin receptor (calcitonin receptor co-expressed with receptor activity modifying protein, RAMP3) (human, UniProt P30988 25-474; O60896 24-148)
T1 sequence (looked up) 1: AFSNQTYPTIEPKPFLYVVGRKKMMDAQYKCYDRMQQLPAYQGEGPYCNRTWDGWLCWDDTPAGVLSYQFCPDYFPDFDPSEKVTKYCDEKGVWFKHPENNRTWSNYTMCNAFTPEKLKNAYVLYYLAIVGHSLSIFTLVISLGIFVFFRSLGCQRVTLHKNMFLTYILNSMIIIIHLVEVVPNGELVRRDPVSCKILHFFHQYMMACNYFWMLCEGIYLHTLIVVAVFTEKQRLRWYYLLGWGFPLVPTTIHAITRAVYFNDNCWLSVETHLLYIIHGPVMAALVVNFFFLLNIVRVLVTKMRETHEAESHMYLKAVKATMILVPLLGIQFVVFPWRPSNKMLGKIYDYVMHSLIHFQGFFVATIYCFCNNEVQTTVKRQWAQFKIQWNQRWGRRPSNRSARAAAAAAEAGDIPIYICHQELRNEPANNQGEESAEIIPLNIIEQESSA
T1 sequence (looked up) 2: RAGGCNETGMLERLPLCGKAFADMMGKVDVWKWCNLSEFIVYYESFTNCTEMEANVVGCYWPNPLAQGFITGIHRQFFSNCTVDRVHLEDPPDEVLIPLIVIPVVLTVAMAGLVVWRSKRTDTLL

T2: human calcitonin receptor (human, UniProt P30988 25-474)
T2 sequence (looked up): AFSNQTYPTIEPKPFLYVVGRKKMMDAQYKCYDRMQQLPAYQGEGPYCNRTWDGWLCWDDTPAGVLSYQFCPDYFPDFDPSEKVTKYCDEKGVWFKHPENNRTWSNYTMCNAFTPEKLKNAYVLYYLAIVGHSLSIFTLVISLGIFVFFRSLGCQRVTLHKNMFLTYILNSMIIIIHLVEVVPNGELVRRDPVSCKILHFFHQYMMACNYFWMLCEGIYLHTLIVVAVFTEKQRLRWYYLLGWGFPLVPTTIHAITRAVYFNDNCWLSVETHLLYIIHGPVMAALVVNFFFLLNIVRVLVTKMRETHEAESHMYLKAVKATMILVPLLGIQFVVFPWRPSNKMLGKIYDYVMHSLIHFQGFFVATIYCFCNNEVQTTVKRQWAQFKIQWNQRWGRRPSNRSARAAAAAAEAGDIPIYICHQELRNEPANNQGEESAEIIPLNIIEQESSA


Experiments:
[1] = molecular target: T1, human amylin receptor (calcitonin …); assay: cell-based or functional assay
[2] = molecular target: T2, human calcitonin receptor; assay: cell-based or functional assay

Row | Binder | EC50 (cAMP production) [1] | Ratio (EC50 hCTR / EC50 hAMYR3) [1] | EC50 (cAMP production) [2]
1 | K([AEEA-AEEA-γGlu-C18 diacid])CNTATCATQRLANFLVHSSNNFGPILPPTNVGSNTY-NH2 (disulfide 2-7) [Peptide 6 (SEQ ID NO: 6)] | 0.068 nM | 5 | 0.31 nM
2 | K([γGlu-C18 diacid])KCNTATCATQRLANFLSHSS[Aib]NFGPILPPTNVGSNTY-NH2 (disulfide 3-8; N-terminus assumed; SMILES CC[C@H](C)[C@H](NC(=O)[C@@H]1CCCN1C(=O)CNC(=O)[C@H](Cc1ccccc1)NC(=O)[C@H](CC(N)=O)NC(=O)C(C)(C)NC(=O)[C@H](CO)NC(=O)[C@H](CO)NC(=O)[C@H](Cc1c[nH]cn1)NC(=O)[C@H](CO)NC(=O)[C@H](CC(C)C)NC(=O)[C@H](Cc1ccccc1)NC(=O)[C@H](CC(N)=O)NC(=O)[C@H](C)NC(=O)[C@H](CC(C)C)NC(=O)[C@H](CCCNC(=N)N)NC(=O)[C@H](CCC(N)=O)NC(=O)[C@@H](NC(=O)[C@H](C)NC(=O)[C@@H]1CSSC[C@H](NC(=O)[C@H](CCCCN)NC(=O)[C@@H](N)CCCCNC(=O)CC[C@H](NC(=O)CCCCCCCCCCCCCCCCC(=O)O)C(=O)O)C(=O)N[C@@H](CC(N)=O)C(=O)N[C@@H]([C@@H](C)O)C(=O)N[C@@H](C)C(=O)N[C@@H]([C@@H](C)O)C(=O)N1)[C@@H](C)O)C(=O)N[C@@H](CC(C)C)C(=O)N1CCC[C@H]1C(=O)N1CCC[C@H]1C(=O)N[C@H](C(=O)N[C@@H](CC(N)=O)C(=O)N[C@H](C(=O)NCC(=O)N[C@@H](CO)C(=O)N[C@@H](CC(N)=O)C(=O)N[C@H](C(=O)N[C@@H](Cc1ccc(O)cc1)C(N)=O)[C@@H](C)O)C(C)C)[C@@H](C)O) [Peptide 37 (SEQ ID NO: 37)] | 0.249 nM | 8 | 1.96 nM
3 | K([AEEA-AEEA-γGlu-C18 diacid])CNTATCATQRLANFLRHSS[Aib]NFGPILPPTEVGSNTY-NH2 (disulfide 2-7; N-terminus assumed; SMILES CC[C@H](C)[C@H](NC(=O)[C@@H]1CCCN1C(=O)CNC(=O)[C@H](Cc1ccccc1)NC(=O)[C@H](CC(N)=O)NC(=O)C(C)(C)NC(=O)[C@H](CO)NC(=O)[C@H](CO)NC(=O)[C@H](Cc1c[nH]cn1)NC(=O)[C@H](CCCNC(=N)N)NC(=O)[C@H](CC(C)C)NC(=O)[C@H](Cc1ccccc1)NC(=O)[C@H](CC(N)=O)NC(=O)[C@H](C)NC(=O)[C@H](CC(C)C)NC(=O)[C@H](CCCNC(=N)N)NC(=O)[C@H](CCC(N)=O)NC(=O)[C@@H](NC(=O)[C@H](C)NC(=O)[C@@H]1CSSC[C@H](NC(=O)[C@@H](N)CCCCNC(=O)COCCOCCNC(=O)COCCOCCNC(=O)CC[C@H](NC(=O)CCCCCCCCCCCCCCCCC(=O)O)C(=O)O)C(=O)N[C@@H](CC(N)=O)C(=O)N[C@@H]([C@@H](C)O)C(=O)N[C@@H](C)C(=O)N[C@@H]([C@@H](C)O)C(=O)N1)[C@@H](C)O)C(=O)N[C@@H](CC(C)C)C(=O)N1CCC[C@H]1C(=O)N1CCC[C@H]1C(=O)N[C@H](C(=O)N[C@@H](CCC(=O)O)C(=O)N[C@H](C(=O)NCC(=O)N[C@@H](CO)C(=O)N[C@@H](CC(N)=O)C(=O)N[C@H](C(=O)N[C@@H](Cc1ccc(O)cc1)C(N)=O)[C@@H](C)O)C(C)C)[C@@H](C)O) [Peptide 45 (SEQ ID NO: 45)] | 0.588 nM | 29 | 16.9 nM
4 | K([γGlu-C18 diacid])KCNTATCATQRLANFLVHSS[Aib]NFGPILPPTNVGSETY-NH2 (disulfide 3-8; N-terminus assumed; SMILES CC[C@H](C)[C@H](NC(=O)[C@@H]1CCCN1C(=O)CNC(=O)[C@H](Cc1ccccc1)NC(=O)[C@H](CC(N)=O)NC(=O)C(C)(C)NC(=O)[C@H](CO)NC(=O)[C@H](CO)NC(=O)[C@H](Cc1c[nH]cn1)NC(=O)[C@@H](NC(=O)[C@H](CC(C)C)NC(=O)[C@H](Cc1ccccc1)NC(=O)[C@H](CC(N)=O)NC(=O)[C@H](C)NC(=O)[C@H](CC(C)C)NC(=O)[C@H](CCCNC(=N)N)NC(=O)[C@H](CCC(N)=O)NC(=O)[C@@H](NC(=O)[C@H](C)NC(=O)[C@@H]1CSSC[C@H](NC(=O)[C@H](CCCCN)NC(=O)[C@@H](N)CCCCNC(=O)CC[C@H](NC(=O)CCCCCCCCCCCCCCCCC(=O)O)C(=O)O)C(=O)N[C@@H](CC(N)=O)C(=O)N[C@@H]([C@@H](C)O)C(=O)N[C@@H](C)C(=O)N[C@@H]([C@@H](C)O)C(=O)N1)[C@@H](C)O)C(C)C)C(=O)N[C@@H](CC(C)C)C(=O)N1CCC[C@H]1C(=O)N1CCC[C@H]1C(=O)N[C@H](C(=O)N[C@@H](CC(N)=O)C(=O)N[C@H](C(=O)NCC(=O)N[C@@H](CO)C(=O)N[C@@H](CCC(=O)O)C(=O)N[C@H](C(=O)N[C@@H](Cc1ccc(O)cc1)C(N)=O)[C@@H](C)O)C(C)C)[C@@H](C)O) [Peptide 42 (SEQ ID NO: 42)] | 0.47 nM | 6 | 2.95 nM
5 | K([γGlu-C18 diacid])KCNTATCATQRLANFLEHSS[Aib]NFGPILPPTNVGSNTY-NH2 (disulfide 3-8; N-terminus assumed; SMILES CC[C@H](C)[C@H](NC(=O)[C@@H]1CCCN1C(=O)CNC(=O)[C@H](Cc1ccccc1)NC(=O)[C@H](CC(N)=O)NC(=O)C(C)(C)NC(=O)[C@H](CO)NC(=O)[C@H](CO)NC(=O)[C@H](Cc1c[nH]cn1)NC(=O)[C@H](CCC(=O)O)NC(=O)[C@H](CC(C)C)NC(=O)[C@H](Cc1ccccc1)NC(=O)[C@H](CC(N)=O)NC(=O)[C@H](C)NC(=O)[C@H](CC(C)C)NC(=O)[C@H](CCCNC(=N)N)NC(=O)[C@H](CCC(N)=O)NC(=O)[C@@H](NC(=O)[C@H](C)NC(=O)[C@@H]1CSSC[C@H](NC(=O)[C@H](CCCCN)NC(=O)[C@@H](N)CCCCNC(=O)CC[C@H](NC(=O)CCCCCCCCCCCCCCCCC(=O)O)C(=O)O)C(=O)N[C@@H](CC(N)=O)C(=O)N[C@@H]([C@@H](C)O)C(=O)N[C@@H](C)C(=O)N[C@@H]([C@@H](C)O)C(=O)N1)[C@@H](C)O)C(=O)N[C@@H](CC(C)C)C(=O)N1CCC[C@H]1C(=O)N1CCC[C@H]1C(=O)N[C@H](C(=O)N[C@@H](CC(N)=O)C(=O)N[C@H](C(=O)NCC(=O)N[C@@H](CO)C(=O)N[C@@H](CC(N)=O)C(=O)N[C@H](C(=O)N[C@@H](Cc1ccc(O)cc1)C(N)=O)[C@@H](C)O)C(C)C)[C@@H](C)O) [Peptide 39 (SEQ ID NO: 39)] | 1.05 nM | 10 | 10.4 nM
6 | K([γGlu-γGlu-C18 diacid])CNTATCATQRLANFLVHSSNNFGPILPPTNVGSNTY-NH2 (disulfide 2-7) [Peptide 5 (SEQ ID NO: 5)] | 0.174 nM | 21 | 3.6 nM
7 | K([γGlu-C18 diacid])KCNTATCATQRLANFL[Aib]HSS[Aib]NFGPILPPTNVGSNTY-NH2 (disulfide 3-8; N-terminus assumed; SMILES CC[C@H](C)[C@H](NC(=O)[C@@H]1CCCN1C(=O)CNC(=O)[C@H](Cc1ccccc1)NC(=O)[C@H](CC(N)=O)NC(=O)C(C)(C)NC(=O)[C@H](CO)NC(=O)[C@H](CO)NC(=O)[C@H](Cc1c[nH]cn1)NC(=O)C(C)(C)NC(=O)[C@H](CC(C)C)NC(=O)[C@H](Cc1ccccc1)NC(=O)[C@H](CC(N)=O)NC(=O)[C@H](C)NC(=O)[C@H](CC(C)C)NC(=O)[C@H](CCCNC(=N)N)NC(=O)[C@H](CCC(N)=O)NC(=O)[C@@H](NC(=O)[C@H](C)NC(=O)[C@@H]1CSSC[C@H](NC(=O)[C@H](CCCCN)NC(=O)[C@@H](N)CCCCNC(=O)CC[C@H](NC(=O)CCCCCCCCCCCCCCCCC(=O)O)C(=O)O)C(=O)N[C@@H](CC(N)=O)C(=O)N[C@@H]([C@@H](C)O)C(=O)N[C@@H](C)C(=O)N[C@@H]([C@@H](C)O)C(=O)N1)[C@@H](C)O)C(=O)N[C@@H](CC(C)C)C(=O)N1CCC[C@H]1C(=O)N1CCC[C@H]1C(=O)N[C@H](C(=O)N[C@@H](CC(N)=O)C(=O)N[C@H](C(=O)NCC(=O)N[C@@H](CO)C(=O)N[C@@H](CC(N)=O)C(=O)N[C@H](C(=O)N[C@@H](Cc1ccc(O)cc1)C(N)=O)[C@@H](C)O)C(C)C)[C@@H](C)O) [Peptide 36 (SEQ ID NO: 36)] | 0.331 nM | 19 | 6.39 nM
